# Measured values as given in US20240270846A1 (published 2024).
# Substitutions are numbered along the chain they refer to. In names and notes the source's numbering stands.
# B1: GLS3000 V94A one-arm antibody (antibody, human IgG1, kappa, L234A L235A, N297A, name in Kabat numbering)
# light: DIVMTQSPLSLPVTPGEPASISCRSSQSLVHSNRNTYLHWYQQKPGQAPRLLIYKVSNRFSGVPDRFSGSGSGTDFTLKISRVEAEDVGVYYCGQGTQAPYTFGQGTKLEIKRTVAAPSVFIFPPSDEQLKSGTASVVCLLNNFYPREAKVQWKVDNALQSGNSQESVTEQDSKDSTYSLSSTLTLSKADYEKHKVYACEVTHQGLSSPVTKSFNRGEC
# heavy: QVQLVESGGGVVQPGRSLRLSCAASGFTFSNAWMHWVRQAPGKGLEWVAQIKAKSNNYATYYAESVKGRFTISRDDSKNSLYLQMNSLKTEDTAVYYCRYVHYGAYYGVDAWGQGTTVTVSSASTKGPSVFPLAPSSKSTSGGTAALGCLVKDYFPEPVTVSWNSGALTSGVHTFPAVLQSSGLYSLSSVVTVPSSSLGTQTYICNVNHKPSNTKVDKKVEPKSCDKTHTCPPCPAPEAAGGPSVFLFPPKPKDTLMISRTPEVTCVVVDVSHEDPEVKFNWYVDGVEVHNAKTKPREEQYASTYRVVSVLTVLHQDWLNGKEYKCKVSNKALPAPIEKTISKAKGQPREPQVYTLPPSRCELTKNQVSLSCAVKGFYPSDIAVEWESNGQPENNYKTTPPVLDSDGSFFLVSKLTVDKSRWQQGNVFSCSVMHEALHNHYTQKSLSLSPDYKDDDDK
# chain: EPKSSDKTHTCPPCPAPELLGGPSVFLFPPKPKDTLMISRTPEVTCVVVDVSHEDPEVKFNWYVDGVEVHNAKTKPREEQYNSTYRVVSVLTVLHQDWLNGKEYKCKVSNKALPAPIEKTISKAKGQPREPQVCTLPPSRDELTKNQVSLWCLVKGFYPSDIAVEWESNGQPENNYKTTPPVLDSDGSFFLYSKLTVDKSRWQQGNVFSCSVMHEALHNRYTQKSLSLSP
# B2: GLS3000 F55V one-arm antibody (antibody, human IgG1, kappa, L234A L235A, N297A, name in Kabat numbering)
# light: B1 light with F60V, A99V
# heavy: B1 heavy
# chain: B1 chain
# B3: GLS3000 G89R one-arm antibody (antibody, human IgG1, kappa, L234A L235A, N297A, name in Kabat numbering)
# light: B1 light with G94R, A99V
# heavy: B1 heavy
# chain: B1 chain
# B4: GLS3000 F55P one-arm antibody (antibody, human IgG1, kappa, L234A L235A, N297A, name in Kabat numbering)
# light: B1 light with F60P, A99V
# heavy: B1 heavy
# chain: B1 chain
# B5: GLS3000 G89E one-arm antibody (antibody, human IgG1, kappa, L234A L235A, N297A, name in Kabat numbering)
# light: B1 light with G94E, A99V
# heavy: B1 heavy
# chain: B1 chain
# B6: GLS3000 F55G one-arm antibody (antibody, human IgG1, kappa, L234A L235A, N297A, name in Kabat numbering)
# light: B1 light with F60G, A99V
# heavy: B1 heavy
# chain: B1 chain
# B7: GLS3000 F55M one-arm antibody (antibody, human IgG1, kappa, L234A L235A, N297A, name in Kabat numbering)
# light: B1 light with F60M, A99V
# heavy: B1 heavy
# chain: B1 chain
# B8: GLS3000 F55S one-arm antibody (antibody, human IgG1, kappa, L234A L235A, N297A, name in Kabat numbering)
# light: B1 light with F60S, A99V
# heavy: B1 heavy
# chain: B1 chain
# B9: GLS3000 F55L one-arm antibody (antibody, human IgG1, kappa, L234A L235A, N297A, name in Kabat numbering)
# light: B1 light with F60L, A99V
# heavy: B1 heavy
# chain: B1 chain
# B10: GLS3000 F55I one-arm antibody (antibody, human IgG1, kappa, L234A L235A, N297A, name in Kabat numbering)
# light: B1 light with F60I, A99V
# heavy: B1 heavy
# chain: B1 chain
# B11: GLS3000 G89Q one-arm antibody (antibody, human IgG1, kappa, L234A L235A, N297A, name in Kabat numbering)
# light: B1 light with G94Q, A99V
# heavy: B1 heavy
# chain: B1 chain
# B12: GLS3000 G89T one-arm antibody (antibody, human IgG1, kappa, L234A L235A, N297A, name in Kabat numbering)
# light: B1 light with G94T, A99V
# heavy: B1 heavy
# chain: B1 chain
# B13: GLS3000 F55E one-arm antibody (antibody, human IgG1, kappa, L234A L235A, N297A, name in Kabat numbering)
# light: B1 light with F60E, A99V
# heavy: B1 heavy
# chain: B1 chain
# B14: GLS3000 G89N one-arm antibody (antibody, human IgG1, kappa, L234A L235A, N297A, name in Kabat numbering)
# light: B1 light with G94N, A99V
# heavy: B1 heavy
# chain: B1 chain
# B15: GLS3000 G89D one-arm antibody (antibody, human IgG1, kappa, L234A L235A, N297A, name in Kabat numbering)
# light: B1 light with G94D, A99V
# heavy: B1 heavy
# chain: B1 chain
# B16: GLS3000 G89F one-arm antibody (antibody, human IgG1, kappa, L234A L235A, N297A, name in Kabat numbering)
# light: B1 light with G94F, A99V
# heavy: B1 heavy
# chain: B1 chain
# B17: GLS3000 G89I one-arm antibody (antibody, human IgG1, kappa, L234A L235A, N297A, name in Kabat numbering)
# light: B1 light with G94I, A99V
# heavy: B1 heavy
# chain: B1 chain
# B18: GLS3000 F55Q one-arm antibody (antibody, human IgG1, kappa, L234A L235A, N297A, name in Kabat numbering)
# light: B1 light with F60Q, A99V
# heavy: B1 heavy
# chain: B1 chain
# B19: GLS3000 F55W one-arm antibody (antibody, human IgG1, kappa, L234A L235A, N297A, name in Kabat numbering)
# light: B1 light with F60W, A99V
# heavy: B1 heavy
# chain: B1 chain
# B20: GLS3000 F55K one-arm antibody (antibody, human IgG1, kappa, L234A L235A, N297A, name in Kabat numbering)
# light: B1 light with F60K, A99V
# heavy: B1 heavy
# chain: B1 chain
# B21: GLS3000 F55T one-arm antibody (antibody, human IgG1, kappa, L234A L235A, N297A, name in Kabat numbering)
# light: B1 light with F60T, A99V
# heavy: B1 heavy
# chain: B1 chain
# B22: GLS3000 F55H one-arm antibody (antibody, human IgG1, kappa, L234A L235A, N297A, name in Kabat numbering)
# light: B1 light with F60H, A99V
# heavy: B1 heavy
# chain: B1 chain
# B23: GLS3000 G89L one-arm antibody (antibody, human IgG1, kappa, L234A L235A, N297A, name in Kabat numbering)
# light: B1 light with G94L, A99V
# heavy: B1 heavy
# chain: B1 chain
# B24: GLS3000 F55Y one-arm antibody (antibody, human IgG1, kappa, L234A L235A, N297A, name in Kabat numbering)
# light: B1 light with F60Y, A99V
# heavy: B1 heavy
# chain: B1 chain
# B25: GLS3000 G89H one-arm antibody (antibody, human IgG1, kappa, L234A L235A, N297A, name in Kabat numbering)
# light: B1 light with G94H, A99V
# heavy: B1 heavy
# chain: B1 chain
# B26: GLS3000 F55N one-arm antibody (antibody, human IgG1, kappa, L234A L235A, N297A, name in Kabat numbering)
# light: B1 light with F60N, A99V
# heavy: B1 heavy
# chain: B1 chain
# B27: GLS3000 G89K one-arm antibody (antibody, human IgG1, kappa, L234A L235A, N297A, name in Kabat numbering)
# light: B1 light with G94K, A99V
# heavy: B1 heavy
# chain: B1 chain
# B28: GLS3000 G89W one-arm antibody (antibody, human IgG1, kappa, L234A L235A, N297A, name in Kabat numbering)
# light: B1 light with G94W, A99V
# heavy: B1 heavy
# chain: B1 chain
# B29: GLS3000 G89A one-arm antibody (antibody, human IgG1, kappa, L234A L235A, N297A, name in Kabat numbering)
# light: B1 light with G94A, A99V
# heavy: B1 heavy
# chain: B1 chain
# B30: GLS3000 G89V one-arm antibody (antibody, human IgG1, kappa, L234A L235A, N297A, name in Kabat numbering)
# light: B1 light with G94V, A99V
# heavy: B1 heavy
# chain: B1 chain
# B31: GLS3000 G89P one-arm antibody (antibody, human IgG1, kappa, L234A L235A, N297A, name in Kabat numbering)
# light: B1 light with G94P, A99V
# heavy: B1 heavy
# chain: B1 chain
# B32: GLS3000 G89M one-arm antibody (antibody, human IgG1, kappa, L234A L235A, N297A, name in Kabat numbering)
# light: B1 light with G94M, A99V
# heavy: B1 heavy
# chain: B1 chain
# B33: GLS3000 F55R one-arm antibody (antibody, human IgG1, kappa, L234A L235A, N297A, name in Kabat numbering)
# light: B1 light with F60R, A99V
# heavy: B1 heavy
# chain: B1 chain
# Biological target: T1, CD3 epsilon homodimer protein (UniProt P07766 23-126)
# T1 construct: Construct of the homodimer is not described; also called CD3 (CD3 epsilon)
# T1 sequence (P07766 23-126): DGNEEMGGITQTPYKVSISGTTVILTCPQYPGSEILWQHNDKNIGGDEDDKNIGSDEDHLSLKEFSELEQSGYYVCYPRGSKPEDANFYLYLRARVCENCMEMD
# Test: SPR Biacore T200, CD3e homodimer on chip, antibody analyte;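 note: CD3 epsilon homodimer amine-coupled on CM4 sensor chip, antibodies injected as analyte at 25 °C in HBS-EP+, ratio ≥0.8 taken as binding retained versus unaltered parent antibody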
row,ratio of amounts bound (altered form/GLS3000),Binder
1,1.05,B1
2,0.71,B2
3,0.19,B3
4,1.16,B4
5,0.26,B5
6,1.31,B6
7,0.8,B7
8,0.69,B8
9,0.76,B9
10,0.82,B10
11,0.38,B11
12,1.03,B12
13,0.72,B13
14,0.8,B14
15,0.33,B15
16,1.09,B16
17,1.07,B17

row,ratio of amounts bound (altered form/GLS3000),Binder
1,0.91,B18
2,0.69,B19
3,1.33,B20
4,0.41,B21
5,0.94,B22
6,0.94,B23
7,0.92,B24
8,0.7,B25
9,0.98,B26
10,0.4,B27
11,0.5,B28
12,1.13,B29
13,1.63,B30
14,0.35,B31
15,0.52,B32
16,1.31,B33
